Fewer inactive variants are shown than the library holds.
B1: TPR 5TU (parent)
chain: GGAUCUUCUCGAUCUAACAAAAAAGACAAAUCUGCCACAAAGCUUGAGAGCAUCUUCGGAUGCAGAGGCGGCAGCCUUCGGUGGCGCGAUAGCGCCAACGUUCUCAACUAUGACACGCAAAACGCGUGCUCCGUUGAAUGGAGUUUAUCAUG

Variants of: B1
Assay: polymerase ribozyme fitness, log enrichment relative to wild type (log ratio); higher = more active; in vitro selection for triplet polymerase activity
How it was run: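 Fitness measures genotype enrichment against wild-type enrichment on a logarithmic scale, with inverse-variance-weighted averaging of replicates. The logarithm is base 2, and genotypes were kept only with ≥10 input reads and ≥1 read per output in Illumina sequencing. The sequenced libraries came from one triplicate in vitro selection round, including frozen incubation at −7 °C, of PCR-built, transcribed mutant libraries of each subunit of a heterodimeric triplet polymerase ribozyme.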

Variant	polymerase ribozyme fitness (log ratio)
U77C	-2.04
U77A	≤ -4.2
G80U C95G C96A	≤ -4.2
U82C C95G	-2.63
C76U G84C	-1.35
C76U G84U	-0.883
U82C C95U C131G A142C	≤ -4.2
U82A A106G C123G U148G	-4.03
C79U C87G	-3.61
G80A C85A A142C	-2.14
C79A A106G U146G	≤ -4.2
G80A A119U	-0.405
U82A G124A	0.114
C79G A98U C99U G133U	≤ -4.2
G81A G140C	-2.67
C79U C93A A98U A122U	-4
G81A C95A	-0.0952
C76U C96U	0.0365
C76U G94A	1.11
G81A G94C A106C A113U C116A G133A	≤ -4.2
U77G G117U	≤ -4.2
G81A C87U A91U G112U G143A	≤ -4.2
U82C U135C U146C	-2.14
G80A G124A	0.289

Variant	polymerase ribozyme fitness (log ratio)
G80U C103G G152A	≤ -4.2
G81U G84A	-1.28
G81A C87U A97U	-1.53
C79U G81U G92C U127G	≤ -4.2
C79A C96G	≤ -4.2
C79A C96A	-4.03
G81A U127C	-2.04
G81A U127G	-3.31
U77A U90A G133U A142C	≤ -4.2
C76U G88A C99A C103A	≤ -4.2
C79A C108U	-4.06
C79G G128U	≤ -4.2
C79G G88U U134C A142U	≤ -4.2
U82A G86A A98U U134A	-3.68
C76U G84A A119U U145G	-2.68
G80C C103G G124A A147G	≤ -4.2
G81A C96U C114G A115U	-3.6
U78G G141A	≤ -4.2
G81C	-0.471
G81A	-0.305
G81U	-0.702
U77G C99A G140A	≤ -4.2
U82G C95G G126C	-1.07
G81A U148C	-1.48

Variant	polymerase ribozyme fitness (log ratio)
G80A C85A	-0.619
U82A A89G C96G G128U	-4.05
G80C G86U	-3.37
C79G G84A G100A A110C	≤ -4.2
C79U C108G U109G U139G U145C	≤ -4.2
G80A C93U U102A	-3.01
C76U G94A C105U	-0.337
U82A A115U U135A	-2.53
U78G U90G C131A	≤ -4.2
G81C C93U U101G	0.439
C76U U135G	-2.79
C76U U135C	-2.53
U78G C85G A142G U146C	≤ -4.2
U78G A89U A106G C118U	≤ -4.2
U82A G126A	1.28
U82C G88C C105U G141A C149U	≤ -4.2
U78C G92C C105U A106G C114U U148G	≤ -4.2
U77C C93U G100A A119U A150C	≤ -4.2
U82A C95A A97C C103U U134A	-3.46
C76U C96U A97G C99U C103G	≤ -4.2
G80A C87U A89C C99A A120U	-2
C79U A97G	-3.02
U78G G94U	-3.47
U82C C93G C116G C118U G140A A150C	≤ -4.2

Variant	polymerase ribozyme fitness (log ratio)
U82G C95A	-1.03
C76U U82G G83A C105A U134C U146A U148G	≤ -4.2
U78C C85U C103A G141U G152U	≤ -4.2
C76U C95A C96U U151G	≤ -4.2
G80C G86U G94C A137C	≤ -4.2
U78G C114U C125A C149U	≤ -4.2
U78C A142G	-1.33
U78C A142U	-1.72
C79U U90A A137G	≤ -4.2
U77G C85U C108A A113G	≤ -4.2
U82C A115U G136C	-3.84
U82A U146A	-0.606
C79A U82G C93A G141U G152U	≤ -4.2
U77C C85A C108A U111C A113U	≤ -4.2
G81A C93U C95U	-1.11
U82C G94A	-1.35
G81A G86A U148A	-3.94
G81U G92U U148G G152A	-3.95
G81C G143C	-2.03
U77G C93A G143A U146C	≤ -4.2
U77G U78C C85U	≤ -4.2
U78G C87G	≤ -4.2
U77C G92C	-3.48
C79U C85U	-1.94

Variant	polymerase ribozyme fitness (log ratio)
C79A C93G C95U U127G C131U G143U	≤ -4.2
U77C C96A	-2.82
C79G U148A	≤ -4.2
U77A C93A A113C	≤ -4.2
G80C C87U U102G G124C U130A	≤ -4.2
U77C G84U A106C	≤ -4.2
C79A G83A	-3.78
U82C G83A C103U	-0.585
C79G G124U U139C	≤ -4.2
G80A G141A	-0.333
G81A C85A C149U	-0.877
U82C G84A G117U	-0.688
U77G A89G C95G C105G C108G	≤ -4.2
U77C G136U C149G	-4.11
G81C C85G C95G	-3.07
U78C G92A	-3.78
C79A C103G	≤ -4.2
U77G C93U G100U	≤ -4.2
G80U U109C G143C	-4.04
C76U G84A C118U U134A G140C U151A	≤ -4.2
U82A C125G	-0.33
U82A C125A	-0.504
C79U A150C	≤ -4.2
U77G A107U U144C U145C	≤ -4.2

Variant	polymerase ribozyme fitness (log ratio)
G81A C105U	1.52
G81A C93G	-3.86
G81C G140C	-3.7
U78C C93U C99A A115C	-4.13
C76U G84U A98U	-1.66
C79U G92U	-1.44
C79A C116A	-3.87
U82C G86A	-2.06
U78G A91C C131G	≤ -4.2
G80C G94A	≤ -4.2
G80U G81C G84U A89U A97U G100A G126U	≤ -4.2
C79A G83U U134G	≤ -4.2
C76U C93A	-2.34
U82C C85A U145C	0.554
G81A C85U A91U G124C U134A	≤ -4.2
C79U C85U A115C	≤ -4.2
U77G G86U U102C G140C	≤ -4.2
C76U C95U	0.961
G81C A89U C96G	-0.784
U82A C96G	-0.244
U82A A120C U130C G143U	-2.44
U78A G80A U82A A142U	≤ -4.2
G81U G94C U144A	-0.944
U82C G84A A98U A115U G141A	-2.58

Variant	polymerase ribozyme fitness (log ratio)
G80A G84A A120G	-1.33
G81C C85U	0.0549
G81U C95U	-1.63
G81A G152U	-3.09
G81A G152C	-3.29
C79A C103G C131A	≤ -4.2
G81A A91G C99G A120C	-4
G80A A150G	-1.8
U77A G88A	≤ -4.2
G81C C93U U130G C131U A150U	≤ -4.2
G81A C85A G136A	0.0509
U82C G94C C108A A110G A113G G140U	≤ -4.2
C79U C103G	≤ -4.2
U78G C85U G126U	≤ -4.2
G80A G81A A120C	-0.393
U77G G81A A97G C99G U101C G141U A142G	≤ -4.2
U82A C103G A113U A137C U148A	≤ -4.2
C79U A121U	-1.2
G81U G141A	0.321
U78C C87U G92A A115U	-2.33
G80C C95U C118G	≤ -4.2
U82A A106U C116U G126U U145C	-2.88
U78A C93G C108U	≤ -4.2
